This note sets out measurements from paper PMC10085699.

One data set deals with T1, SETX-HD-DE/AA (Homo sapiens, UniProt Q7Z333 1674-2677, D2181A;E2182A).
T1 sequence: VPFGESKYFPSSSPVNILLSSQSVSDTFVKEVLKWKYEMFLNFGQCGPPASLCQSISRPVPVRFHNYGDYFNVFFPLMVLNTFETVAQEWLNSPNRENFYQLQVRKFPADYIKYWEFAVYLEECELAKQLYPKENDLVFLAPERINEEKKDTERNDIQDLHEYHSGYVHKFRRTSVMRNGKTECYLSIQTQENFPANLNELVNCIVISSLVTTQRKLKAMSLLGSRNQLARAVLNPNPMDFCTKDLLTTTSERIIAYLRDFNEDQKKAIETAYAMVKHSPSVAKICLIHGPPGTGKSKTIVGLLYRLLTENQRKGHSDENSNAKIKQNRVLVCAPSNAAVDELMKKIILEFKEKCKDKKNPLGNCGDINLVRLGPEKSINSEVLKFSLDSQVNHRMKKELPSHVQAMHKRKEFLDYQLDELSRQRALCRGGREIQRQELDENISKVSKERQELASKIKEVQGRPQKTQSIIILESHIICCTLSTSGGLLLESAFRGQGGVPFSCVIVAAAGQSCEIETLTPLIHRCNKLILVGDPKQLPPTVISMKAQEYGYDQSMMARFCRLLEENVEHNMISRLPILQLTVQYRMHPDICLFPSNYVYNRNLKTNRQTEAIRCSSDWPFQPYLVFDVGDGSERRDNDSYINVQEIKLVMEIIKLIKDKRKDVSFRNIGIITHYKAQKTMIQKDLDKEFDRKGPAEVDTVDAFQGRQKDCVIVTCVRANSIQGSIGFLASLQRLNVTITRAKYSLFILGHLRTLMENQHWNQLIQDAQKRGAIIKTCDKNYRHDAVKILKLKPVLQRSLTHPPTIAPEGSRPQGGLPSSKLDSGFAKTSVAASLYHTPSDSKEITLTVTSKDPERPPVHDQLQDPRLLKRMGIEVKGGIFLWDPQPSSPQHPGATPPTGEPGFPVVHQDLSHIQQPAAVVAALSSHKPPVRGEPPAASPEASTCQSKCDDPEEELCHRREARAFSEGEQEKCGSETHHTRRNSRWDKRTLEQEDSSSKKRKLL
The data set can be described thus: EMSA. (In EMSA bound probe runs differently from free probe, usually more slowly.)

The next data set has as its target T2, Sen1-HD (UniProt Q00416 1095-1904).
T2 sequence: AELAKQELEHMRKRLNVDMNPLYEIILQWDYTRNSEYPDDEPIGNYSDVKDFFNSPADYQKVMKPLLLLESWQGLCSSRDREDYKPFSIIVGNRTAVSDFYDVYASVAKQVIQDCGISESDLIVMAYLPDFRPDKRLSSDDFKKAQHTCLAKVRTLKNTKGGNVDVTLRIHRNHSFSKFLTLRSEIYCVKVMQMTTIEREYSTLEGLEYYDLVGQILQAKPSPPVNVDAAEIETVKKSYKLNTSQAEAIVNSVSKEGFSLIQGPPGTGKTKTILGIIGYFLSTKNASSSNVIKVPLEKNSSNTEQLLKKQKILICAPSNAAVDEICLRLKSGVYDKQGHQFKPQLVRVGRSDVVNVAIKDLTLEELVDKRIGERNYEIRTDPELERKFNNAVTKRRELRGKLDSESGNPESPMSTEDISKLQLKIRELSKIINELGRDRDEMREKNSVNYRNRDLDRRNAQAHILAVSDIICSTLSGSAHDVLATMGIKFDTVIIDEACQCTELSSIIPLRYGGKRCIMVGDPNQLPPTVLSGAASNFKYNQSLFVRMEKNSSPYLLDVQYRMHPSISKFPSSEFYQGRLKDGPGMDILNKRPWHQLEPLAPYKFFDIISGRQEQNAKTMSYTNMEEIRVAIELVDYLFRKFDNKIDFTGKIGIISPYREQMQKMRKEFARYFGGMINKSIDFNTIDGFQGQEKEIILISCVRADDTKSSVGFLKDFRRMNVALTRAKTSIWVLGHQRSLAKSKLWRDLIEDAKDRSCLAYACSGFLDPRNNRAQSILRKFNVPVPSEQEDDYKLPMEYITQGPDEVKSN
Put plainly: EMSA.

B1: ssRNA pRMS678 (61 nt) (ssRNA)
RNA: UUGUCUUCUCAUAAAUUUAAUCCCCGUACGCUUAUACUCCUUUAACUACCCAGUCUUCCCG
Take B1: the binding result with SETX-HD-DE/AA and with Sen1-HD was “binds” each time.
